Experiment [1] deals with vasoinhibin of 123 residues (first 123 residues of human PRL) (human). Put plainly: non-reducing Western blot; conditioned media of transduced HEK293T/17 cells run without reduction and immunoblotted for PRL; disulfide-bonded dimers seen as bands of ~18 kDa and ~28 kDa.
In experiment [2] the target is vasoinhibin of 79 residues (first 79 residues of human PRL) (human). Described as above.

In experiment [1], “vasoinhibin of 123 residues (first 123 residues of human PRL) (domain or fragment)” registered a stoichiometry N of 2.
With “vasoinhibin of 79 residues (first 79 residues of human PRL) (domain or fragment)”, the stoichiometry N in experiment [2] came to 2.

As usually defined, the stoichiometry N is a count of units in the complex or per binding partner.
